From US20130005646A1 (Novo Nordisk, published 2013)
Starred links: 1 amine or outer side, 2 acyl side, 3 side chain; linkers in the order of their positions; H or OH if unused. Positions of bridges follow the written chain, without caps; N, C: chain ends. Non-standard residues stand in square brackets, D forms with d. *: point of attachment. C20 diacid = O=C(O)CCCCCCCCCCCCCCCCCCC(=O)*; C18 diacid = O=C(O)CCCCCCCCCCCCCCCCC(=O)*; γGlu = O=C(O)[C@H](CCC(=O)[*:2])N[*:1]; Orn = NCCC[C@H](N)C(=O)O; AEEA = NCCOCCOCC(=O)O

T1: human calcitonin (a) receptor (human, UniProt P30988 25-474)
T1 sequence (looked up): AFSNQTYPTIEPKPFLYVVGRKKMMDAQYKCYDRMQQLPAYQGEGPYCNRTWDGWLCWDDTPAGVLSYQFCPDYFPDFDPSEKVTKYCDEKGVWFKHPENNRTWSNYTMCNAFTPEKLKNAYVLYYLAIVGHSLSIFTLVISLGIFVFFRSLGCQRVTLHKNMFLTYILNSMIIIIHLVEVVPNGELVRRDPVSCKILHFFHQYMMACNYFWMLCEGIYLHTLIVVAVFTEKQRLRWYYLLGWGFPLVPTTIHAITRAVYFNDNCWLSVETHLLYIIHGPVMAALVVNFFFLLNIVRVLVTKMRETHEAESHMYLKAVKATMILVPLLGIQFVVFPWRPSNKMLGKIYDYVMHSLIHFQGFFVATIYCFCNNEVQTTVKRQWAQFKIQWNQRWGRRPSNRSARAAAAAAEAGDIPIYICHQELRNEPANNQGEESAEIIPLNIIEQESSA

T2: rat amylin 3(a) receptor (rat calcitonin(a) receptor + rat RAMP3) (rat, UniProt P32214 25-516; Q9JJ73 23-147)
T2 sequence (looked up) 1: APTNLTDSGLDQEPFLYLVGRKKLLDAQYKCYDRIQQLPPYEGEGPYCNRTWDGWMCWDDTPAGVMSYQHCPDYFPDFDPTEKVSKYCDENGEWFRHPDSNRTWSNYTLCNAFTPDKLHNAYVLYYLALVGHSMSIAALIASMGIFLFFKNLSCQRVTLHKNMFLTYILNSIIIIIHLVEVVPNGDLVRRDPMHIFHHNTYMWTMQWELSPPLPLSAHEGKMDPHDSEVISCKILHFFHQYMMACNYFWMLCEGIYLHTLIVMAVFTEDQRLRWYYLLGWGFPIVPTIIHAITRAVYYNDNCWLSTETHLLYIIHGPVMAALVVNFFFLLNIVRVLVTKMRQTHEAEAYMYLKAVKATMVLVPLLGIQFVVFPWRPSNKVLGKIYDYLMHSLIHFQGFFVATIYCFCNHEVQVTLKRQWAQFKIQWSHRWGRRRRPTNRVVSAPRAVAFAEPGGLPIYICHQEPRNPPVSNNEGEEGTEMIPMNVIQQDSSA
T2 sequence (looked up) 2: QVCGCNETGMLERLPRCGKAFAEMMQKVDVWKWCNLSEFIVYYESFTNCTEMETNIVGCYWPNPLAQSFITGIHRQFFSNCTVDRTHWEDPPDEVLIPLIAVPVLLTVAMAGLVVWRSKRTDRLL

T3: rat calcitonin (a) receptor (rat, UniProt P32214 25-516)
T3 sequence (looked up): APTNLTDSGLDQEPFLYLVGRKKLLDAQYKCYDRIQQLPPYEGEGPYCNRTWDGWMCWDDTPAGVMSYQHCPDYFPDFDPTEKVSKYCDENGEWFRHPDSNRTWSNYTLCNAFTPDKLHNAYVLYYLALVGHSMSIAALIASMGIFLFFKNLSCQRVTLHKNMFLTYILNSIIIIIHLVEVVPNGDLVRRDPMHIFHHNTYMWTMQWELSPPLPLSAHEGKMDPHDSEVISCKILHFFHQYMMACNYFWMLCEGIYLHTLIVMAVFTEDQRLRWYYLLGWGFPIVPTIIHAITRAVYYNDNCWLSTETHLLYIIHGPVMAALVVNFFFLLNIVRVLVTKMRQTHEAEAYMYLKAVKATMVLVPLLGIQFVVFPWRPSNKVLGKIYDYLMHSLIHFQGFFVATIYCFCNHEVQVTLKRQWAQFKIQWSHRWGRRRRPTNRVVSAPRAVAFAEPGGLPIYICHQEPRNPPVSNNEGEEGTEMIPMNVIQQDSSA

T4: human amylin 3(a) receptor (human calcitonin receptor + RAMP-3) (human, UniProt P30988 25-474; O60896 24-148)
T4 sequence (looked up) 1: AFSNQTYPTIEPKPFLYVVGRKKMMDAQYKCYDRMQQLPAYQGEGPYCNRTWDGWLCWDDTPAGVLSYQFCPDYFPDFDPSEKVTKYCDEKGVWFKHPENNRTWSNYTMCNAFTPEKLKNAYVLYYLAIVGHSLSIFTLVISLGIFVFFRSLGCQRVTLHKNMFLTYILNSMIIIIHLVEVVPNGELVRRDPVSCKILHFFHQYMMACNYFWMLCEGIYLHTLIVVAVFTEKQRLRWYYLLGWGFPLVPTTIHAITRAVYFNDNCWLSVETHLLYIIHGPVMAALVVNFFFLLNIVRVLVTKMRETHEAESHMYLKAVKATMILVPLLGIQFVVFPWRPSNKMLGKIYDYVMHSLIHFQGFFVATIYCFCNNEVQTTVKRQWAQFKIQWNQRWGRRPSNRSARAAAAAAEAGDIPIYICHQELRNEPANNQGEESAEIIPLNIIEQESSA
T4 sequence (looked up) 2: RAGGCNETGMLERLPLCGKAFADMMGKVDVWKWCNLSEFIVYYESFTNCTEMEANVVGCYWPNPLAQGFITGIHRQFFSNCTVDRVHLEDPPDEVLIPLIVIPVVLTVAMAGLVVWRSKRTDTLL


Experiments:
Assay in all cases: cell-based or functional assay
[1] = target: T1, human calcitonin (a) receptor
[2] = target: T2, rat amylin 3(a) receptor (rat …)
[3] = target: T3, rat calcitonin (a) receptor
[4] = target: T4, human amylin 3(a) receptor (human …)

| Binder | CTa receptor human EC50 [1] [pM] | Amylin receptor rat EC50 [2] [pM] | CTa receptor rat EC50 [3] [pM] | Amylin receptor human EC50 [4] [pM] |
| --- | --- | --- | --- | --- |
| {C20 diacid-γGlu}-ECNTATCATQRLAEFLHRSSNNFGPILPPTNVGSNTP-NH2 (disulfide 2-7; SMILES CC[C@H](C)[C@H](NC(=O)[C@@H]1CCCN1C(=O)CNC(=O)[C@H](Cc1ccccc1)NC(=O)[C@H](CC(N)=O)NC(=O)[C@H](CC(N)=O)NC(=O)[C@H](CO)NC(=O)[C@H](CO)NC(=O)[C@H](CCCNC(=N)N)NC(=O)[C@H](Cc1c[nH]cn1)NC(=O)[C@H](CC(C)C)NC(=O)[C@H](Cc1ccccc1)NC(=O)[C@H](CCC(=O)O)NC(=O)[C@H](C)NC(=O)[C@H](CC(C)C)NC(=O)[C@H](CCCNC(=N)N)NC(=O)[C@H](CCC(N)=O)NC(=O)[C@@H](NC(=O)[C@H](C)NC(=O)[C@@H]1CSSC[C@H](NC(=O)[C@H](CCC(=O)O)NC(=O)CC[C@H](NC(=O)CCCCCCCCCCCCCCCCCCC(=O)O)C(=O)O)C(=O)N[C@@H](CC(N)=O)C(=O)N[C@@H]([C@@H](C)O)C(=O)N[C@@H](C)C(=O)N[C@@H]([C@@H](C)O)C(=O)N1)[C@@H](C)O)C(=O)N[C@@H](CC(C)C)C(=O)N1CCC[C@H]1C(=O)N1CCC[C@H]1C(=O)N[C@H](C(=O)N[C@@H](CC(N)=O)C(=O)N[C@H](C(=O)NCC(=O)N[C@@H](CO)C(=O)N[C@@H](CC(N)=O)C(=O)N[C@H](C(=O)N1CCC[C@H]1C(N)=O)[C@@H](C)O)C(C)C)[C@@H](C)O) | 86.4 | 374 | 806 | 82.3 |
| {C20 diacid-γGlu}-GRCNTATCATQRLAEFLHHSSNNFGPILPPTNVGSNTP-NH2 (disulfide 3-8; SMILES CC[C@H](C)[C@H](NC(=O)[C@@H]1CCCN1C(=O)CNC(=O)[C@H](Cc1ccccc1)NC(=O)[C@H](CC(N)=O)NC(=O)[C@H](CC(N)=O)NC(=O)[C@H](CO)NC(=O)[C@H](CO)NC(=O)[C@H](Cc1c[nH]cn1)NC(=O)[C@H](Cc1c[nH]cn1)NC(=O)[C@H](CC(C)C)NC(=O)[C@H](Cc1ccccc1)NC(=O)[C@H](CCC(=O)O)NC(=O)[C@H](C)NC(=O)[C@H](CC(C)C)NC(=O)[C@H](CCCNC(=N)N)NC(=O)[C@H](CCC(N)=O)NC(=O)[C@@H](NC(=O)[C@H](C)NC(=O)[C@@H]1CSSC[C@H](NC(=O)[C@H](CCCNC(=N)N)NC(=O)CNC(=O)CC[C@H](NC(=O)CCCCCCCCCCCCCCCCCCC(=O)O)C(=O)O)C(=O)N[C@@H](CC(N)=O)C(=O)N[C@@H]([C@@H](C)O)C(=O)N[C@@H](C)C(=O)N[C@@H]([C@@H](C)O)C(=O)N1)[C@@H](C)O)C(=O)N[C@@H](CC(C)C)C(=O)N1CCC[C@H]1C(=O)N1CCC[C@H]1C(=O)N[C@H](C(=O)N[C@@H](CC(N)=O)C(=O)N[C@H](C(=O)NCC(=O)N[C@@H](CO)C(=O)N[C@@H](CC(N)=O)C(=O)N[C@H](C(=O)N1CCC[C@H]1C(N)=O)[C@@H](C)O)C(C)C)[C@@H](C)O) | 45.5 | 75 | 44 | 51.5 |
| {C18 diacid-γGlu-AEEA-AEEA}-[dR][dR][Orn]CNTATCATQRLAEFLHRSSNNFGPILPPTNVGSNTY-NH2 (disulfide 4-9; SMILES CC[C@H](C)[C@H](NC(=O)[C@@H]1CCCN1C(=O)CNC(=O)[C@H](Cc1ccccc1)NC(=O)[C@H](CC(N)=O)NC(=O)[C@H](CC(N)=O)NC(=O)[C@H](CO)NC(=O)[C@H](CO)NC(=O)[C@H](CCCNC(=N)N)NC(=O)[C@H](Cc1c[nH]cn1)NC(=O)[C@H](CC(C)C)NC(=O)[C@H](Cc1ccccc1)NC(=O)[C@H](CCC(=O)O)NC(=O)[C@H](C)NC(=O)[C@H](CC(C)C)NC(=O)[C@H](CCCNC(=N)N)NC(=O)[C@H](CCC(N)=O)NC(=O)[C@@H](NC(=O)[C@H](C)NC(=O)[C@@H]1CSSC[C@H](NC(=O)[C@H](CCCN)NC(=O)[C@@H](CCCNC(=N)N)NC(=O)[C@@H](CCCNC(=N)N)NC(=O)COCCOCCNC(=O)COCCOCCNC(=O)CC[C@H](NC(=O)CCCCCCCCCCCCCCCCC(=O)O)C(=O)O)C(=O)N[C@@H](CC(N)=O)C(=O)N[C@@H]([C@@H](C)O)C(=O)N[C@@H](C)C(=O)N[C@@H]([C@@H](C)O)C(=O)N1)[C@@H](C)O)C(=O)N[C@@H](CC(C)C)C(=O)N1CCC[C@H]1C(=O)N1CCC[C@H]1C(=O)N[C@H](C(=O)N[C@@H](CC(N)=O)C(=O)N[C@H](C(=O)NCC(=O)N[C@@H](CO)C(=O)N[C@@H](CC(N)=O)C(=O)N[C@H](C(=O)N[C@@H](Cc1ccc(O)cc1)C(N)=O)[C@@H](C)O)C(C)C)[C@@H](C)O) | 690 | 33 | 2570 | 29.5 |
| {C20 diacid-γGlu}-HCNTATCATQRLAEFLHRSSSSFGPILPPTDVGSDTY-NH2 (disulfide 2-7; SMILES CC[C@H](C)[C@H](NC(=O)[C@@H]1CCCN1C(=O)CNC(=O)[C@H](Cc1ccccc1)NC(=O)[C@H](CO)NC(=O)[C@H](CO)NC(=O)[C@H](CO)NC(=O)[C@H](CO)NC(=O)[C@H](CCCNC(=N)N)NC(=O)[C@H](Cc1c[nH]cn1)NC(=O)[C@H](CC(C)C)NC(=O)[C@H](Cc1ccccc1)NC(=O)[C@H](CCC(=O)O)NC(=O)[C@H](C)NC(=O)[C@H](CC(C)C)NC(=O)[C@H](CCCNC(=N)N)NC(=O)[C@H](CCC(N)=O)NC(=O)[C@@H](NC(=O)[C@H](C)NC(=O)[C@@H]1CSSC[C@H](NC(=O)[C@H](Cc2c[nH]cn2)NC(=O)CC[C@H](NC(=O)CCCCCCCCCCCCCCCCCCC(=O)O)C(=O)O)C(=O)N[C@@H](CC(N)=O)C(=O)N[C@@H]([C@@H](C)O)C(=O)N[C@@H](C)C(=O)N[C@@H]([C@@H](C)O)C(=O)N1)[C@@H](C)O)C(=O)N[C@@H](CC(C)C)C(=O)N1CCC[C@H]1C(=O)N1CCC[C@H]1C(=O)N[C@H](C(=O)N[C@@H](CC(=O)O)C(=O)N[C@H](C(=O)NCC(=O)N[C@@H](CO)C(=O)N[C@@H](CC(=O)O)C(=O)N[C@H](C(=O)N[C@@H](Cc1ccc(O)cc1)C(N)=O)[C@@H](C)O)C(C)C)[C@@H](C)O) | 208 | 330 | 1730 | 212 |
| {C20 diacid-γGlu}-HCNTATCATQRLAEFLHRSSNNFGPILPPTNVGSNTY-NH2 (disulfide 2-7; SMILES CC[C@H](C)[C@H](NC(=O)[C@@H]1CCCN1C(=O)CNC(=O)[C@H](Cc1ccccc1)NC(=O)[C@H](CC(N)=O)NC(=O)[C@H](CC(N)=O)NC(=O)[C@H](CO)NC(=O)[C@H](CO)NC(=O)[C@H](CCCNC(=N)N)NC(=O)[C@H](Cc1c[nH]cn1)NC(=O)[C@H](CC(C)C)NC(=O)[C@H](Cc1ccccc1)NC(=O)[C@H](CCC(=O)O)NC(=O)[C@H](C)NC(=O)[C@H](CC(C)C)NC(=O)[C@H](CCCNC(=N)N)NC(=O)[C@H](CCC(N)=O)NC(=O)[C@@H](NC(=O)[C@H](C)NC(=O)[C@@H]1CSSC[C@H](NC(=O)[C@H](Cc2c[nH]cn2)NC(=O)CC[C@H](NC(=O)CCCCCCCCCCCCCCCCCCC(=O)O)C(=O)O)C(=O)N[C@@H](CC(N)=O)C(=O)N[C@@H]([C@@H](C)O)C(=O)N[C@@H](C)C(=O)N[C@@H]([C@@H](C)O)C(=O)N1)[C@@H](C)O)C(=O)N[C@@H](CC(C)C)C(=O)N1CCC[C@H]1C(=O)N1CCC[C@H]1C(=O)N[C@H](C(=O)N[C@@H](CC(N)=O)C(=O)N[C@H](C(=O)NCC(=O)N[C@@H](CO)C(=O)N[C@@H](CC(N)=O)C(=O)N[C@H](C(=O)N[C@@H](Cc1ccc(O)cc1)C(N)=O)[C@@H](C)O)C(C)C)[C@@H](C)O) [N-alpha-[(S)-4-Carboxy-4-(19-carboxynonadecanoylamino)butyryl]-[His1,Glu14,His17,Arg18]-pramlintide] | 150 | 64.5 | 379 | 93.4 |
